Data from US7314724B2, “Therapeutic applications of laminin and laminin-derived protein fragments” (University of Washington, priority 1996, dated 2008).
pKd: −log10 of the molar value.

Molecular target: T1, Aβ (1-40) (Homo sapiens, UniProt P05067)
T1 construct: 2 μg of Aβ (1-40)(Bachem Inc., Torrance, Calif. USA; Lot #WM365); purchased Bachem Inc., Torrance, Calif; Lot #WM365
Experiment: Solid phase binding immunoassay of laminin to substrate bound Aβ (1-40)
Conditions: one-site model, single binding constant; read-out: apparent dissociation constant Kd, binding to immobilized Aβ (1-40)
Procedure: 2 μg of Aβ (1-40)(Bachem Inc., Torrance, Calif. USA; Lot #WM365) in 40 μl of Tris-buffered saline (TBS)(pH 7.0) was allowed to bind overnight at 4° C. to microtiter wells (Nunc plates, Maxisorb). The next day all of the microtiter wells were blocked by incubating with 300 μl of Tris-buffered saline containing 100 mM Tris-HCl, 50 MM NaCl, 0.05% Tween-20, and 3 mM NaN3 (pH 7.4)(TTBS) plus 2% bovine serum albumin (BSA). Various dilutions (ie. 1:10, 1:30, 1:90, 1:270, 1:810, 1:2430 and 1:7290) of Engelbreth-Holm-Swarm (EHS) mouse tumor laminin (1 mg/ml)(Sigma Chemical Co., St. Louis, Mo., USA) in 250 μl of TBS (pH 7.4) were placed in wells (in triplicate) either containing substrate bound Aβ (1-40) or blank, and allowed to bind overnight at 4° C. overnight. […] The reaction was stopped with 50 μl of 4N H2SO4 and read on a Model 450 microplate reader (Biorad, Hercules, Calif. USA) at 490 nm. Data points representing a mean of triplicate determinations were plotted and the affinity constants (ie. Kd) were determined using Ultrafit (version 2.1, Biosoft, Cambridge, U.K.) as described below.
The binding data were analyzed assuming a thermodynamic equilibrium for the formation of the complex BL, from the laminin ligand in solution, L, and the uncomplexed Aβ adsorbed to the microtiter well, B, according to the equation: Kd=[B]×[L]/[BL]. […]

T1 sequence (P05067 672-711 limits assumed): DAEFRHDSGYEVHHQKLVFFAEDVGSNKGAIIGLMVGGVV

In the case of “laminin: Engelbreth-Holm-Swarm (EHS) mouse tumor laminin (Sigma); 850 kDa basement membrane glycoprotein of A, B1 and B2 chains”, the pKd was 8.57.
